The supplement of paper PMC9233669
Variants at the floor of the assay were thinned out.

Assays:
biotinyl-Phe-oxazolone = assay: self-aminoacylation, catalytic enhancement (BFO) (fold over background); higher = more active; k-Seq, kA / k0A0; sequences stand for … in GGGAAUGGAUCCACAUCUACGAAUUC…UUCACUGCAGACUUGACGAAGCUG
In short: (§1)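 Catalytic enhancement equals the median kA over the uncatalyzed rate, the latter read from the low-activity peak of a bimodal Gaussian fit. Values of kA came from fitting each sequence's fraction reacted to a pseudo-first-order model, with 1000 bootstraps. Reacted RNA was captured with streptavidin and quantified by triplicate qPCR and Illumina sequencing after 90 minutes at room temperature with 2–1250 μM biotinyl-aminoacyl-oxazolone and 0.43 μM mutagenized RNA pools bearing a 21-nt variable region.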

biotinyl-Ile-oxazolone = assay: self-aminoacylation, catalytic enhancement (BIO) (fold over background); higher = more active; k-Seq, kA / k0A0; sequences stand for … in GGGAAUGGAUCCACAUCUACGAAUUC…UUCACUGCAGACUUGACGAAGCUG
In short: as §1

biotinyl-Met-oxazolone = assay: self-aminoacylation, catalytic enhancement (BMO) (fold over background); higher = more active; k-Seq, kA / k0A0; sequences stand for … in GGGAAUGGAUCCACAUCUACGAAUUC…UUCACUGCAGACUUGACGAAGCUG
In short: as §1

biotinyl-Val-oxazolone = assay: self-aminoacylation, catalytic enhancement (BVO) (fold over background); higher = more active; k-Seq, kA / k0A0; sequences stand for … in GGGAAUGGAUCCACAUCUACGAAUUC…UUCACUGCAGACUUGACGAAGCUG
In short: as §1

biotinyl-Leu-oxazolone = assay: self-aminoacylation, catalytic enhancement (BLO) (fold over background); higher = more active; k-Seq, kA / k0A0; sequences stand for … in GGGAAUGGAUCCACAUCUACGAAUUC…UUCACUGCAGACUUGACGAAGCUG
In short: as §1

biotinyl-Trp-oxazolone = assay: self-aminoacylation, catalytic enhancement (BWO) (fold over background); higher = more active; k-Seq, kA / k0A0; sequences stand for … in GGGAAUGGAUCCACAUCUACGAAUUC…UUCACUGCAGACUUGACGAAGCUG
In short: as §1

Sequence | self-aminoacylation (biotinyl-Phe-oxazolone) | self-aminoacylation (biotinyl-Ile-oxazolone) | self-aminoacylation (biotinyl-Met-oxazolone) | self-aminoacylation (biotinyl-Val-oxazolone) | self-aminoacylation (biotinyl-Leu-oxazolone) | self-aminoacylation (biotinyl-Trp-oxazolone)
AUUACCCUGGUCAUCGAGUUU [Fam2.1 aminoacylation ribozyme variant] | 14.8 | 3.52 | 7.8 | 4.61 | 7.87 | 6.31
AUUACCCUGGUCAUCGAUAGA [Fam2.1 aminoacylation ribozyme variant] | 0.5 | 0.721 | 0.638 | 0.77 | 0.537 | 1.23
AUUACCCUGGUCAUCGCGAGA [Fam2.1 aminoacylation ribozyme variant] | 1.58 | 2.17 | 1.68 | 2.21 | 1.44 | 2.72
AUUACCCUGGUCAUCGCGCGA [Fam2.1 aminoacylation ribozyme variant] | 36.7 | 5.07 | 4.45 | 5.24 | 6.23 | 3.18
AUUACCCUGGUCAUCGCGUGC [Fam2.1 aminoacylation ribozyme variant] | 16.8 | 2.81 | 3.35 | 2.75 | 4.64 | 4.47
AUUACCCUGGUCAUCGGCUGA [Fam2.1 aminoacylation ribozyme variant] | 4.87 | 2.74 | 1.54 | 3.04 | 2.77 | 2.77
AUUACCCUGGUCAUCGGGUAA [Fam2.1 aminoacylation ribozyme variant] | 208 | 11.4 | 35.6 | 16 | 38.2 | 42.4
AUUACCCUGGUCAUCGGGUGC [Fam2.1 aminoacylation ribozyme variant] | 211 | 13.4 | 39.2 | 18.9 | 52.5 | 48.7
AUUACCCUGGUCAUCGUCUGA [Fam2.1 aminoacylation ribozyme variant] | 0.374 | 0.88 | 0.842 | 0.817 | 0.907 | 0.531
AUUACCCUGGUCAUCUAGUCA [Fam2.1 aminoacylation ribozyme variant] | 0.712 | 0.753 | 0.578 | 0.827 | 0.616 | 0.455
AUUACCCUGGUCAUCUAGUGA [Fam2.1 aminoacylation ribozyme variant] | 42.9 | 4.51 | 9.61 | 4.83 | 9.15 | 11.3
AUUACCCUGGUCAUCUUGUGA [Fam2.1 aminoacylation ribozyme variant] | 22.6 | 2.27 | 4.75 | 2.33 | 4.41 | 4.57
AUUACCCUGGUCAUGAAGUGA [Fam2.1 aminoacylation ribozyme variant] | 44.8 | 4.14 | 8.83 | 4.08 | 7.74 | 10.1
AUUACCCUGGUCAUGGAAUGA [Fam2.1 aminoacylation ribozyme variant] | 1.95 | 1.19 | 1.53 | 1.21 | 1.17 | 2.08
AUUACCCUGGUCAUGGAGAGA [Fam2.1 aminoacylation ribozyme variant] | 1.19 | 0.877 | 0.941 | 1.18 | 1.2 | 1.77
AUUACCCUGGUCAUGGUGUGA [Fam2.1 aminoacylation ribozyme variant] | 4.16 | 1.27 | 1.64 | 1.18 | 1.84 | 2.24
AUUACCCUGGUCAUUAAGUGA [Fam2.1 aminoacylation ribozyme variant] | 55.5 | 4.88 | 11.2 | 5.31 | 10.3 | 13.4
AUUACCCUGGUCAUUGAGCGA [Fam2.1 aminoacylation ribozyme variant] | 4.43 | 1.45 | 1.16 | 1.41 | 1.44 | 1.66
AUUACCCUGGUCCUCAAGUGA [Fam2.1 aminoacylation ribozyme variant] | 7.45 | 1.64 | 2.16 | 2.02 | 2.29 | 3.02
AUUACCCUGGUCCUCGAGUGC [Fam2.1 aminoacylation ribozyme variant] | 2.51 | 0.969 | 0.658 | 1.06 | 1.07 | 1.31
AUUACCCUGGUCGACGAGUGA [Fam2.1 aminoacylation ribozyme variant] | 26.4 | 2.86 | 5.53 | 3.33 | 5.32 | 6.05
AUUACCCUGGUCGGCGAGUGA [Fam2.1 aminoacylation ribozyme variant] | 53.6 | 5.39 | 7.37 | 5.03 | 9.02 | 8.06
AUUACCCUGGUCGUAGAGUGA [Fam2.1 aminoacylation ribozyme variant] | 3.08 | 1.17 | 1.28 | 1.09 | 1.84 | 2.26
